# In PMC8065639:
# Molecular target: T1, GST-PA14_51020-His (antitoxin) (Pseudomonas aeruginosa PA14) (UniProt A0A0H2Z7N8)
# T1 sequence: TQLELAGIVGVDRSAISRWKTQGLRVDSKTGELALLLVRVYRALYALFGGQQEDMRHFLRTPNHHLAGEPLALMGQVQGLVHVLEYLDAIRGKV
# Test: EMSA
row,Sequence,binding
1,GTTTTTCTCTCTATCACGCCGGTCAATGCTTGCGCGTGGTTCTCTAGGTTCGACCGAATCAAGGTGTGTTTTCAGCAAAATAATGATAGTTTGTTGTAAACACACATGAGGAGGTCGTCATGAGCGCTCTCATCAAGGAACGTCCCAGCGCCGATGCTGTCCTGGCCAAGGCCGTCCTGGCCGCGCGCGAGCAATTGGGG (double strand) [PA14_51020 upstream (operon promoter) fragment],binds
2,CGGGCTGGAAGGTGGAGCGGGGAATCCGTCTGCAGGCGCCGCCTTTCTCCGATCACGAGGCTGCGCTGACCGACATCGCCGACTACCGCGCTCCCCAGGAACTGGGGAGTGCCATGCGCAGCGCCGGGGTGCAGGCATTCGAATACCGTTCGGCGCGTTGCCCGGAGCGCGGCTGCAATGTCGCCCTGTTCACGCCCGCG (double strand) [PA14_51010 coding region internal fragment],no binding
